Test results from article PMC11491553, “Structural insights into the mechanotransducing mechanism of FtsEX in cell division” (MedComm, 2024).

Biological target: the molecule itself
Assay: cryo-EM structure; FtsE(E163Q)X with endogenously captured ATP, reconstituted into lipid nanodiscs (MSP1D1, E. coli polar extract, 1:2:200); 2.6 Å

B1: FtsE(E163Q) (enzyme, E. coli K12)
chain: IRFEHVSKAYLGGRQALQGVTFHMQPGEMAFLTGHSGAGKSTLLKLICGIERPSAGKIWFSGHDITRLKNREVPFLRRQIGMIFQDHHLLMDRTVYDNVAIPLIIAGASGDDIRRRVSAALDKVGLLDKAKNFPIQLSGGEQQRVGIARAVVNKPAVLLADQPTGNLDDALSEGILRLFEEFNRVGVTVLMATHDINLISRRSYRMLTLSDGHLHGGVGHE
notes: gene amplified from genomic DNA; The gene was amplified from genomic DNA and no truncation is mentioned; Removal of the 8×His-SUMO fusion from FtsE is not described; the complex with EnvC was recaptured on nickel; Retains endogenously captured ATP; also called NBD; FtsE of FtsE(E163Q)X; not shown: 8×His, N-terminal, kept
  stoichiometry N: 2

B2: FtsX (natural protein, E. coli K12)
chain: RFRKSVGGSGDGGRNAPKRAKSSPKPVNRKTNVFNEQVRYAFHGALQDLKSKPFATFLTVMVIAISLTLPSVCYMVYKNVNQAATQYYPSPQITVYLQKTLDDDAAAGVVAQLQAEQGVEKVNYLSREDALGEFRNWSGFGGALDMLEENPLPAVAVVIPKLDFQGTESLNTLRDRITQINGIDEVRMDDSWFARLAALTGLVGRVSAMIGVLMVAAVFLVIGNSVRLSIFARRDSINVQKLIGATDGFILRPFLYGGALLGFSGALLSLILSEILVLRLSSAVAEVAQVFGTKFDINGLSFDECLLLLLVCSMIGWVAAWLATVQHLRHFTPE
notes: FtsX, E. coli K12, integral membrane protein of FtsEX (four transmembrane helices, periplasmic loop domain); gene amplified from genomic DNA; The gene was amplified from genomic DNA and no truncation or tag on FtsX is mentioned; also called FtsX of FtsEX; TMDs and PLDs
  stoichiometry N: 2
